{
  "source": "paper PMC6279372",
  "about": "(The Journal of Cell Biology, 2018)",
  "proteins": {"B1": {"name": "His6-SipA^1-242 (domain or fragment)", "chain": "MVTSVRTQPPVIMPGMQTEIKTQATNLAANLSAVRESATATLSGEIKGPQLEDFPALIKQASLDALFKCGKDAEALKEVFTNSNNVAGKKAIMEFAGLFRSALNATSDSPEAKTLLMKVGAEYTAQIIKDGLKEKSAFGPWLPETKKAEAKLENLEKQLLDIIKNNTGGELSKLSTNLVMQEVMPYIASCIEHNFGCTLDPLTRSNLTHLVDKAAAKAVEALDMCHQKLTQEQGTSVGREAR"}},
  "target": "the molecule itself",
  "assay": "nonreducing SDS-PAGE",
  "data": [
    {"protein": "B1", "values": [
      {"measurement": "binding result", "result": "binds"}
    ]}
  ]
}
